Experimental findings from patent US20210198366A1 (NGM BIOPHARMACEUTICALS, published 2021) are described below.

Assay [1] addresses T1, human B7-H7 (soluble analyte in SPR) (human, UniProt Q9UM44 23-344, limits assumed).
T1 sequence: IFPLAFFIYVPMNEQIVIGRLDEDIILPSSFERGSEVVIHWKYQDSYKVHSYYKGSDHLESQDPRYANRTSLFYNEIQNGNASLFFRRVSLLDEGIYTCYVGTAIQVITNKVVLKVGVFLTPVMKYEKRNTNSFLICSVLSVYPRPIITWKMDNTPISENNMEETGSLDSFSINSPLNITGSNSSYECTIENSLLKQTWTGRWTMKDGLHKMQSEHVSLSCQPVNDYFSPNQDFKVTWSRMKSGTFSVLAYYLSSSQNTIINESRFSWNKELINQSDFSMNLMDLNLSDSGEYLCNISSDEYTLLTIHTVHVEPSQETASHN
Nature of the assay: SPR (Biacore), antibody captured by anti-Fc on CM5 chip, B7-H7 injected, 37 C. The procedure:
The binding affinities of exemplary anti-B7-H7 antibodies to human B7-H7 and cyno B7-H7 were measured using SPR technology (Biacore system, GE Healthcare Life Sciences). Briefly, anti-Fc antibody (Sigma-Aldrich) was immobilized on all four flow cells of a CM5 chip using amine coupling reagents (GE Healthcare LifeSciences). Exemplary antibodies were captured on flow cells 2, 3, and 4 using flow cell 1 as a reference. Human B7-H7 or cyno B7-H7 (samples ranging from 0.62-40 nM) were injected at a flow rate of 50 μL/min at 37° C. Kinetic data were collected over time and fit using the simultaneous global fit equation to yield affinity constants (KD values) for each antibody.
Background: SPR reads the build-up and loss of mass on a sensor chip optically.

Assay [2] deals with T2, soluble human B7-H7-Fc fusion protein (extracellular region of human B7-H7, aa 23-344, and a human Fc … (human, UniProt Q9UM44 23-344)).
T2 construct: also called hB7-H7-Fc; soluble B7-H7
T2 sequence: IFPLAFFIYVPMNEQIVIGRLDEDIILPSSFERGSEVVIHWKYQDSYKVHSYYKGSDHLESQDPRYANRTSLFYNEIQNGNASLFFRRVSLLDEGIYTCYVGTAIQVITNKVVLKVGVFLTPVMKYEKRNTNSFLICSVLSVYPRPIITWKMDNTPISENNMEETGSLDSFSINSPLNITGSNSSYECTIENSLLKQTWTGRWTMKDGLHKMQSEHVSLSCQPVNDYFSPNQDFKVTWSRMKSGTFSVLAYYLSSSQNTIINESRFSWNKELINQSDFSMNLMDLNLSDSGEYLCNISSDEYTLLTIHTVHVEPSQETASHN
The experiment in a line: FACS competition: antibody titrated against soluble hB7-H7-Fc binding to HEK-293 cells expressing human CD28H. As for the experimental part: (§1) Exemplary anti-B7-H7 antibodies identified by ELISA and FACS were tested for their ability to block binding of soluble B7-H7 to receptors KIR3DL3 or CD28H in a FACS assay. HEK-293 cells were transiently transfected with a construct encoding (i) a membrane-bound KIR3DL3 protein or (ii) a membrane-bound CD28H protein. After 48 hours, transfected cells were suspended in ice cold PBS containing 1% FBS and 0.1% sodium azide and incubated on ice in the presence of […]/ml of soluble human B7-H7-Fc protein and antibodies 2D7, 1D3, 28F3, 16D5, 2F10, 5F7, 5B10, 5C9, or 3H6 (serially diluted from […] to 4.6 ng/ml). A second incubation with an anti-human Fc secondary antibody was performed to detect cells bound by the soluble B7-H7-Fc. The cells were analyzed on a BD FACSCalibur instrument (BD Biosciences) and the data was processed using FlowJo software. Calculated IC50s are shown Table 12.

The target in assay [3] is T3, human B7-H7 expressed on the cell surface (human, UniProt Q9UM44 23-414).
T3 sequence: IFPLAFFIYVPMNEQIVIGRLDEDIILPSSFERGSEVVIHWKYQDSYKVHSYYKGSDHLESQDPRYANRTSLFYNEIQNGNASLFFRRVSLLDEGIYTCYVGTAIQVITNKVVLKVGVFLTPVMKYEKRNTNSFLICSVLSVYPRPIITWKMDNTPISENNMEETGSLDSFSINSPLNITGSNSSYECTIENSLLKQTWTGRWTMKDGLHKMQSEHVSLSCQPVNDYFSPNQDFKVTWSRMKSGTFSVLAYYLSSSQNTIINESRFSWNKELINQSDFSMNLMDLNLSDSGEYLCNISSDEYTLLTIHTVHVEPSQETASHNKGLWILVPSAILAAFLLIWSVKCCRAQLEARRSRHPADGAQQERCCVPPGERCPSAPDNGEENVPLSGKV
The experiment in a line: cell-based or functional assay.

The target in assay [4] is T3, human B7-H7 expressed on the cell …. The experiment in a line: FACS on HEK-293T cells expressing human B7-H7.
For assay [5], the target named is T4, cynomolgus monkey B7-H7 expressed on HEK-293T cells (cynomolgus monkey).
T4 construct: also called cyno B7-H7; cells expressing cyno B7-H7
T4 chain: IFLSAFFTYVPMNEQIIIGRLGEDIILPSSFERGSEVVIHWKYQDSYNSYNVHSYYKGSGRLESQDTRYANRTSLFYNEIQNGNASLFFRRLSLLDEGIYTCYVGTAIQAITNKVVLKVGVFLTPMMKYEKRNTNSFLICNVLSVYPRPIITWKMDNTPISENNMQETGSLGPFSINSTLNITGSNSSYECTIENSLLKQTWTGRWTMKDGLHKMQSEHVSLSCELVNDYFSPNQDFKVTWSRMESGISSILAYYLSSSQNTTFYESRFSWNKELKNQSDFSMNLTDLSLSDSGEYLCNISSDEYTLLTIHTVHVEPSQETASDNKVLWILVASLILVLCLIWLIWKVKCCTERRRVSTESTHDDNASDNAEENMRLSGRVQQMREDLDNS
The experiment in a line: FACS on HEK-293T cells expressing cyno B7-H7.

Assay [6] concerns the target T2, soluble human B7-H7-Fc fusion protein …. The experiment in a line: FACS competition: antibody titrated against soluble hB7-H7-Fc binding to HEK-293 cells expressing human KIR3DL3. As for the experimental part: as §1

Usually Kd stands for the equilibrium constant for the complex coming apart. For orientation: IC50 means the concentration that gives 50% inhibition.

B1: anti-B7-H7 antibody 28F5 (antibody, V domains shown)
VH: QVQLKESGPGLVAPSQSLSITCTVSGFSLTGYGVNWVRQPPGKGLEWLGVIWGDGSTDYNSVLKSRLSISKDNSKSQVFLKMNSLQTDDTARYYCAREATEYLYWYFDVWGAGTTVTVSS
VL: DIVLTQSPASLAVSLGQRATISCRASESVEYYGSSLMQWYQQKPGQPPKLLIFAASNVESGVPPRFSGSGSGTDFNLNIHPVDEDDIAMYFCQQGRRVPWTFGGGTKLEIK
notes: Mouse hybridoma antibody
In assay [1], B1 registered a Kd of 0.4 nM. For the same molecule, the figures for the IC50 in assay [2] and in assay [6] were 2.7 nM and 2.6 nM, respectively. In addition, the “Induction of NK-92 cytotoxicity EC50” value in assay [3] is 0.5 nM. In assay [3], the “Induction of NK-92 cytotoxicity Relative efficacy” value was 150%. For the same molecule, the MFI in assay [4] came out at 152 MFI; in assay [5] it was 165 MFI.

B2: anti-B7-H7 antibody 5B10 (antibody, V domains shown)
VH: EVQLQQSGPELEKPGASVKISCKASGYSFTGYNMNWVKQSNGKSLEWIGNIDPYSGGSTYNQKFKGKATLTVDKSSSTASLQLKSLTSEDSSVYYCARSFYDAPYLTYWGQGTLVTVSA
VL: DIQMTQSPTSLSASVGETVTITCRASENIFIYLAWYQQKQGKSPQLLVFNAKTLAEGVPSRFSGSGSGTQFSLKINSLRPEDFGTYYCQHHYGTPPTFGGGTKLEV
notes: Mouse hybridoma antibody
As to B2, binding in assay [1] was put at a Kd of 4 nM. Also, the figures for the IC50 in assay [2] and in assay [6] were 3.4 nM and 2.4 nM, respectively. In addition, the “Induction of NK-92 cytotoxicity EC50” value in assay [3] came out at 1.6 nM. For the same molecule, the “Induction of NK-92 cytotoxicity Relative efficacy” value in assay [3] was found to be 148%. Besides, the MFI in assay [4] turned out to be 82 MFI; in assay [5], 93 MFI.

B3: anti-B7-H7 antibody 1D3 (antibody, V domains shown)
VH: EVQLQQSGPELEKPGASVKISCKASGYSFTGYNMNWVKESNGRSLEWIGNIDPYSGGSTYNQKFKGKATMTVDKSSSTAYMQLKSLTSEDSAVYYCARSVYDAPWLAHWGQGTLVTVSA
VL: DIQMTQSPASLSASVGETVTITCRASENIYIYLAWYQQKQGKSPQLLVYNAKTLAEGVPSRFSGSGSGTQFSLKINRLQPEDFGNYYCQHHYGTPPTFGGGTKLEIK
notes: Mouse hybridoma antibody
Molecule B3 showed a dissociation constant (Kd) in assay [1] of 0.9 nM. The IC50 was determined as 8 nM in assay [2] and 5 nM in assay [6]. Further, the “Induction of NK-92 cytotoxicity EC50” value in assay [3] worked out at 1.2 nM. Also, the “Induction of NK-92 cytotoxicity Relative efficacy” value in assay [3] came to 136%. The MFI in assay [4] is 247 MFI; in assay [5], 214 MFI.

B4: anti-B7-H7 antibody 5C9 (antibody, V domains shown)
VH: QVQLQQSGAELAKPGASVKMSCKASGYTFTSFWIHWIKQRPGQGLEWIGYIIPNTDYTEYNQKFKDKATFTADKSSSTAYMQLSSLTSEDSAVFYCARGLRGAYYFDYWGQGTTLTVSS
VL: DIVLTQSPASLAVSLGLRATISCRSSQSVSTSTNGYMHWYQQKPGQPPKLLIMYASNLESGVPARFSGSGSGTDFTLNIHPVDEEDTATYYCQHSWVLPYTFGGGTKLEIK
notes: Mouse hybridoma antibody
In assay [1], B4 came in with a dissociation constant (Kd) of 0.8 nM. Moreover, the figures for the IC50 in assay [2] and in assay [6] were 3.4 nM and 3 nM, respectively. Also, the “Induction of NK-92 cytotoxicity EC50” value in assay [3] stood at 1.6 nM. Also, in assay [3], the “Induction of NK-92 cytotoxicity Relative efficacy” value turned out to be 155%. Further, the MFI in assay [4] came to 185 MFI; in assay [5], 176 MFI.

B5: anti-B7-H7 antibody 16D5 (antibody, V domains shown)
VH: QVQLQQSAAELARPGASVKMSCKASGYTFTTYTMHWVKQRPGQGLEWIGYINPSRGYSDYSQKFQGKSTLTTDKSSNTAYIQLTSLTSEDSAVYFCARGGYDFDYWGQGTTLTVSS
VL: DIVMTQSHKFMSTSVGDRVSITCKASQDVGTAVAWYQQKPGQSPKLLLYWASTRHTGVPDRFTGSGSGTDYTLTISSVQAEDLALYHCQQHFITPYTFGGGTKLEIK
notes: Mouse hybridoma antibody
Consider B5, for which the equilibrium dissociation constant (Kd) in assay [1] is 0.2 nM. Further, the values for the half-maximal inhibitory concentration (IC50) in assay [2] and in assay [6] were 2 nM and 1.7 nM, respectively. For the same molecule, the “Induction of NK-92 cytotoxicity EC50” value in assay [3] was 0.5 nM. Moreover, the “Induction of NK-92 cytotoxicity Relative efficacy” value in assay [3] came out at 135%. Moreover, the results for the MFI in assay [4] and in assay [5] were 165 MFI and 199 MFI, respectively.

B6: anti-B7-H7 antibody 5F7 (antibody, V domains shown)
VH: QEQLQQPGTELVKPGASVKISCKASGYTFSSYSMHWVKLTPGQGLEWMGTIYPGNENTSYNQKFKGKATLTADKSSSTAYMQLSSLTSEDSAVYYCARGGYYFDYWGQGTTLTVSS
VL: DIVMTQSHKFLSTSVGDRVSITCKASQDVSTAVAWYQQKPGQSPKLLIYWASTRHTGVSDRFTGSGSGTDFTLTISSVQAEDLALYYCQQHFDIPYWFGGGTKLEIK
notes: Mouse hybridoma antibody
With B6, the equilibrium dissociation constant (Kd) in assay [1] amounted to 0.6 nM. For the same molecule, the IC50 in assay [2] was determined as 1.8 nM; in assay [6], 1.6 nM. Moreover, the “Induction of NK-92 cytotoxicity EC50” value in assay [3] worked out at 0.6 nM. For the same molecule, in assay [3], the “Induction of NK-92 cytotoxicity Relative efficacy” value turned out to be 151%. Besides, the figures for the MFI in assay [4] and in assay [5] were 163 MFI and 195 MFI, respectively.

B7: anti-B7-H7 antibody 3H6 (antibody, V domains shown)
VH: EVQLQQSGPELVKPGASVKISCKTSGYTFTEYTMHWVKQSHGKSLEWIGGINPNNGGAPYNQKFKGKATLTVDKSSSTAYMELRSLTSEDSAVYYCARGGYYFDYWGQGTTLTVSS
VL: DIVMTQSHKFMSTSVGDRVSITCKASQDVSTAVAWYQQKSGQSPKLLIYWASTRHTGVPDRFTGSGSGTDYTLTISSVQAEDLALYYCQQHYDTPFTFGGGTKLEIK
notes: Mouse hybridoma antibody
The molecule B7 came in with a Kd in assay [1] of 0.8 nM. Besides, the IC50 turned out to be 2.5 nM in assay [2] and 2.7 nM in assay [6]. For the same molecule, the “Induction of NK-92 cytotoxicity EC50” value in assay [3] is 0.8 nM. Also, in assay [3], the “Induction of NK-92 cytotoxicity Relative efficacy” value turned out to be 105%. Also, the MFI came out at 41 MFI in assay [4] and 568 MFI in assay [5].

B8: anti-B7-H7 antibody 2F10 (antibody, V domains shown)
VH: EIQLQQTGPELVKPGASLRISCKASGYSFTDYIIVWVKQNQGKNLDWIEKINPYYGTTTYNLRFEDKATLTVNKSSTTAYMQLNSLTSEDSAVYYCARWDYVSTLFAMDYWGQGTSITVSS
VL: DIVMTQSHKVMSTSVGDRVSIICKASQDVGTAVAWYQQKPGQSPKLLIYWASTRHTGVPDRFTGSGSGTDFILTITNVQSENLANYFCQQYKRYYTFGGGTKLEIK
notes: Mouse hybridoma antibody
For B8, the equilibrium dissociation constant (Kd) in assay [1] turned out to be 0.3 nM. The results for the IC50 in assay [2] and in assay [6] were 3 nM and 2.5 nM, respectively. The “Induction of NK-92 cytotoxicity EC50” value in assay [3] was 0.9 nM. Further, the “Induction of NK-92 cytotoxicity Relative efficacy” value in assay [3] came to 146%. The MFI was 101 MFI in assay [4] and 134 MFI in assay [5].
